Data: patent US6576753B1, “DNA encoding human leukotriene C4 synthase” (The Brigham and Women's Hospital, Inc., priority 1994, dated 2003)
“Also recorded” adds a separate entry of the source.

B1: Q25K: LTC4 synthase point mutant (protein, UniProt Q16873 1-150, looked up, variant Q25K)
Leukotriene C4 synthase: MKDEVALLAAVTLLGVLLQAYFSLKVISARRAFRVSPPLTTGPPEFERVYRAQVNCSEYFPLFLATLWVAGIFFHEGAAALCGLVYLFARLRYFQGYARSAQLRLAPLYASARALWLLVALAALGLLAHFLPAALRAALLGRLRTLLPWA
B2: R51I/WT: recombinant pseudo-heterodimer of R51I LTC4 synthase monomer and wild-type monomer (protein, UniProt Q16873 1-150, looked up, variant R51I)
Leukotriene C4 synthase: MKDEVALLAAVTLLGVLLQAYFSLQVISARRAFRVSPPLTTGPPEFERVYIAQVNCSEYFPLFLATLWVAGIFFHEGAAALCGLVYLFARLRYFQGYARSAQLRLAPLYASARALWLLVALAALGLLAHFLPAALRAALLGRLRTLLPWA
modifications: heterodimer with wild-type monomer
B3: deletion of the charged amino acids K2 and D3 at the amino terminus: LTC4 synthase deletion mutant (protein, UniProt Q16873 1-150, looked up, variant K2* D3*)
Leukotriene C4 synthase: MEVALLAAVTLLGVLLQAYFSLQVISARRAFRVSPPLTTGPPEFERVYRAQVNCSEYFPLFLATLWVAGIFFHEGAAALCGLVYLFARLRYFQGYARSAQLRLAPLYASARALWLLVALAALGLLAHFLPAALRAALLGRLRTLLPWA

Experiments:
LTC4 synthase [1] = experiment: Enzyme kinetics of purified recombinant wild-type or mutant LTC4 synthase; type: biochemical, human; settings: purified recombinant enzyme
Experimental: (§1) PURIFICATION AND KINETIC ANALYSIS OF SELECTED EXPRESSED PROTEINS: Recombinant LTC4 synthases were purified by S-hexyl GSH agarose affinity chromatography (Lam et al., Eur. J. Biochem., 238:606, 1996). Solubilized microsomes were loaded onto a 2.5-cm×1.5-cm open bed of S-hexyl GSH resin equilibrated with 50 mM HEPES, 1 mM EDTA, 5 mM β-mercaptoethanol, 0.1% Triton X-102, 10% glycerol, pH 7.6 (Buffer A) at 4° C. The column was washed sequentially with 5 volumes each of buffer A/0.3 M NaCl/20 mM GSH/0.1% DOC, buffer A/2.5 mM S-hexyl GSH/2.5 mM S-octyl GSH/0.1% DOC, and buffer A/0.1% DOC; and the enzyme was eluted with 5 fractions of 1 volume each of 15 mM probenecid in buffer A containing 0.1% DOC. The enzyme was purified nearly to homogeneity as determined by the presence in silver stained SDS-PAGE gels of a predominant 18-kDa protein band with a minor 34-kDa band; only the 18-kDa band interacted with anti-LTC4 synthase antibody on immunoblot analysis. After sequential concentration and dilution with a Microsep 10K centrifugal concentrator (Filtron Technology Corp., Northborough, Mass.) to remove probenecid, the protein concentration was estimated by staining a SDS-PAGE gel of the purified enzyme and a standard amount of lysozyme resolved in the same gel with Coomassie blue dye and comparing their intensities.
To examine the enzyme kinetics of recombinant wild-type or mutant LTC4 synthase, 3-100 ng portions of purified enzyme were incubated in 200 μl of HEPES buffer, pH 7.6, containing 10 mM MgC'2 with either 20 μM LTA4-ME and various concentration of GSH or with 10 mM GSH and various concentrations of LTA4-ME for 2 min at room temperature. The reactions were terminated by the addition of 3 vol of methanol containing 200 ng PGB2. Samples were then analyzed for LTC4-ME by RP-HPLC.

LTC4 synthase [2] = experiment: Conjugation of LTA4-ME with GSH by solubilized microsomes of COS cells transfected with wild-type or mutant LTC4 synthase; settings: for Function / Km / effect on Km of GSH: COS cell microsome; for conjugation function of transfected COS cell microsomes: compared to wild-type construct
Experimental: OF THE EXPRESSED PROTEINS: COS-7 cells were transfected with either wild-type LTC4 synthase cDNA or the mutated LTC4 synthase cDNA by DEAE-dextran transfection (Lam et al., Proc. Natl. Acad. Sci. USA., 91:7663, 1994). Three days after transfection, the cells were harvested by treatment with trypsin and suspended in microsomal buffer (50 mM HEPES buffer pH 7.9 containing 2 mM EDTA and 10 mM β-mercaptoethanol) at a concentration of 5×10^6 cells/ml. The cells were lysed by sonication with a Branson microtip sonicator (Danbury, Conn.) at a setting of 7. Cell lysates were centrifuged at 100,000×g for 60 min at 4° C., and the pellets (microsomes) were resuspended in microsomal buffer and were solubilized by the addition of 0.4% Triton X-102, 0.4% sodium deoxycholate (DOC), and 10% glycerol and stirring at 4° C. for 45 min.
The function of each mutant enzyme as well as the wild-type enzyme was first screened by the incubation of 1-10 μl of solubilized COS cell microsomes with 10 mM GSH and 20 μM LTA4-ME in 200 μl 50 mM HEPES buffer containing 10 mM MgCl2, pH 7.6. The reactions were carried out at room temperature for 10 min and stopped by the addition of 3 vol methanol containing 200 ng prostaglandin B2 (PGB2) as an internal standard. LTC4-ME levels in the samples were determined with high performance liquid chromatography (HPLC).
Reverse phase (RP)-HPLC was carried out with a model 126 dual pump system and model 167 scanning UV detector (Beckman Instruments) controlled by an Gateway 2000 P4D66 computer equipped with Beckman System Gold software. Samples were applied to a 5-μm 4.6×250-mm C18 Ultrasphere reverse phase column (Beckman Instruments) equilibrated with a solvent of methanol/acetonitrile/water/acetic acid (10:15:100:0.2, v/v), pH 6.0 (solvent A). Immediately after the sample was injected, the column was eluted at a flow rate of 1 ml/min with a programmed concave gradient (System Cold curve 6) to 20% solvent A and 80% solvent B (pure methanol) over 0.2 min with continuation isocratically for 5.8 min. Beginning at 6 min, solvent B was increased linearly to 100% over 0.2 min and was maintained at this level for 7 min more. The ultraviolet absorbance at 280 nm and the ultraviolet spectra were recorded simultaneously. The retention times for PGB2 and LTC4-ME were 7.4 and 8.9 min, respectively. LTC4-ME was quantitated by calculating the ratio of the peak area to the area of the internal standard PGB2.

[3] = Binding of mutant protein to S-hexyl GSH agarose column; settings: eluted with probenecid
Experimental: as §1

LTC4 synthase [4] = biological target: T1, LTC4 synthase (Homo sapiens, UniProt Q16873); experiment: Dose-response assay using MK886: conversion of LTA4-ME to LTC4-ME by lysates of transfected COS-7 cells; type: biochemical; settings: at a concentration of 10 μM
T1 construct: expressed in transfected cells; host or cells: COS-7 cells (pcDNA3 clone from KG-1 library), cell lysate
T1 sequence (Q16873 1-150): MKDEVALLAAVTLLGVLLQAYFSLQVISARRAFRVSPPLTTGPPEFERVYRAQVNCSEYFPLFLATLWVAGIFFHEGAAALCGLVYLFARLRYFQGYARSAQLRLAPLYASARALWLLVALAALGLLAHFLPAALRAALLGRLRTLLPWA
Experimental: After 2.8 min more, solvent B was increased linearly to 90% over 2 min and was maintained at this level for an additional 10 min. UV absorbance at 280 nm and the UV spectra were recorded simultaneously. The retention times for PGB2 and LTC4-ME were 8.5 and 10.1 min, respectively.
DOSE-RESPONSE ASSAY USING MK886: Cell lysates of the COS-7 cell transfectant containing SEQ ID NO.:1 were incubated with 20 micromolar LTA4-ME, 20 mM GSH, 5 mM MgCl2 in HEPES buffer (pH 7.6), in the presence of 0-10 micromolar MK886 for 10 minutes at room temperature. Reactions were stopped by addition of 2 volumes of methanol containing 200 ng PGB2. Samples were analyzed by RP-HPLC.

Molecule | Function (LTC4 synthase [2]) | conjugation function of transfected COS cell microsomes (LTC4 synthase [2]) | Km (LTC4 synthase [2]; read-out: Km GSH) | Km (LTC4 synthase [2]; read-out: Km LTA4-ME) | also measured
R51T: LTC4 synthase point mutant | 0 % of WT | do not show conjugation activity |  |  | Vmax LTC4-ME (LTC4 synthase [1]): Inactive; conjugation function of transfected COS cell microsomes (LTC4 synthase [2]; listed as Arg 51 to threonine): abolished the functional activity; binding to S-hexyl GSH agarose column [3]: bound to S-hexyl GSH
E58Q: LTC4 synthase point mutant |  | did not attenuate the conjugation function |  |  | 
H75Q: LTC4 synthase point mutant |  | did not affect the function |  |  | 
R92S: LTC4 synthase point mutant |  | did not affect the function |  |  | 
L39F: LTC4 synthase point mutant |  | did not affect the function |  |  | 
Y50F: LTC4 synthase point mutant |  | did not affect the function |  |  | 
E45Q: LTC4 synthase point mutant |  | did not attenuate the conjugation function; also recorded: did not affect the function |  |  | 
R48S: LTC4 synthase point mutant |  | did not attenuate the conjugation function; also recorded: did not affect the function |  |  | 
S100V: LTC4 synthase point mutant |  | did not affect the function |  |  | 
R51H | 100 % of WT | activity was not diminished | 3800 µM | 6.4 µM | Vmax LTC4-ME (LTC4 synthase [1]): 20.0 µmol/min/mg; Km (LTC4 synthase [1]; read-out: Km GSH): 1500 µM; Km (LTC4 synthase [1]; read-out: Km LTA4-ME): 6.3 µM
R51I: LTC4 synthase point mutant |  | do not show conjugation activity |  |  | conjugation function of transfected COS cell microsomes (LTC4 synthase [2]; listed as Arg 51 to isoleucine): abolished the functional activity
F60Y: LTC4 synthase point mutant |  | did not affect the function |  |  | 
E76Q: LTC4 synthase point mutant |  | did not affect the function |  |  | 
R51K: LTC4 synthase point mutant | 100 % of WT | activity was not diminished | 2300 µM | 9.4 µM | 
R104S: LTC4 synthase point mutant |  | did not affect the function |  |  | 
R99S: LTC4 synthase point mutant |  | did not affect the function |  |  | 
C[C@H](C#Cc1ccc(Oc2ccc(F)cc2)o1)N(O)C(N)=O [A79175] |  |  |  |  | effect on LTC4 synthase activity in COS cell lysates (LTC4 synthase [4]): did not affect LTC4 synthase activity
V69T: LTC4 synthase point mutant | 100 % of WT |  | 2000 µM | 19 µM | 
E47Q: LTC4 synthase point mutant |  | did not attenuate the conjugation function; also recorded: did not affect the function |  |  | 

Molecule | Function (LTC4 synthase [2]) | conjugation function of transfected COS cell microsomes (LTC4 synthase [2]) | Km (LTC4 synthase [2]; read-out: Km GSH) | Km (LTC4 synthase [2]; read-out: Km LTA4-ME) | also measured
C82V: LTC4 synthase point mutant | 100 % of WT | do not affect conjugation function | 2000 µM | 10.9 µM | Vmax LTC4-ME (LTC4 synthase [1]): 37.7 µmol/min/mg; Km (LTC4 synthase [1]; read-out: Km GSH): 900 µM; Km (LTC4 synthase [1]; read-out: Km LTA4-ME): 6.3 µM; conjugation function of transfected COS cell microsomes (LTC4 synthase [2]; listed as C82 to V82): None of the mutations affected conjugation function
A52S: LTC4 synthase point mutant | 80 % of WT |  | 30000 µM | 4.5 µM | effect on Km of GSH (LTC4 synthase [2]): did exhibit an increase in Km for GSH
V49F: LTC4 synthase point mutant | 100 % of WT |  | 9200 µM | 10 µM | 
V69S: LTC4 synthase point mutant |  | did not affect the function |  |  | 
N55A: LTC4 synthase point mutant of the consensus N-glycosylation site | 85 % of WT |  | 10700 µM | 7.7 µM | effect on Km of GSH (LTC4 synthase [2]): increase the Km of GSH
T66V: LTC4 synthase point mutant |  | did not affect the function |  |  | 
S111V: LTC4 synthase point mutant |  | did not affect the function |  |  | 
C56S: LTC4 synthase point mutant |  | do not affect conjugation function |  |  | conjugation function of transfected COS cell microsomes (LTC4 synthase [2]; listed as C56 to S56): None of the mutations affected conjugation function
WT: recombinant wild-type human LTC4 synthase (SEQ ID NO.:2) | 100 % of WT |  | 500 to 2000 µM | 6 to 20 µM | Vmax LTC4-ME (LTC4 synthase [1]): 51.3 µmol/min/mg; Km (LTC4 synthase [1]; read-out: Km GSH): 1400 µM; Km (LTC4 synthase [1]; read-out: Km LTA4-ME): 7.4 µM
F46Y: LTC4 synthase point mutant |  | did not affect the function |  |  | 
Y59F: LTC4 synthase point mutant | 100 % of WT |  | 15500 µM | 19 µM | 
Q53N: LTC4 synthase point mutant |  | did not affect the function |  |  | 
V54Q: LTC4 synthase point mutant |  | did not affect the function |  |  | 
L62T: LTC4 synthase point mutant | 100 % of WT | did not affect the function | 2500 µM | 6.7 µM | 
Y109I: LTC4 synthase point mutant | 100 % of WT | did not affect the function | 1600 µM | 20 µM | 
Y97F: LTC4 synthase point mutant | 100 % of WT |  | 16500 µM | 16.5 µM | 
B1 |  | did not affect the function |  |  | 
B2 | 90 % of WT | retained enzymatic function | 3200 µM | 6.5 µM | 
B3 |  | Neither the deletion of the charged amino acids K2 and D3 at the amino terminus nor the deletion of the 14 amino acids at the carboxyl terminus altered the function |  |  | 
